Laboratory results from patent publication KR20160086217A (dated 2016).

Columns and labels:
c-Met [1] = target: T1, c-Met (UniProt P08581 25-932, limits assumed); test: SPR, Biacore T100; antibody (from GSKO GLUD1 301 GS cells) captured on Human Fab binder on CM5 chip, c-Met as analyte 25 to 0.78 nmol, 1:1 kinetic fit
T1 construct: also called 항원인 c-Met

c-Met [2] = target: T1, c-Met; test: SPR, Biacore T100; antibody (from GSKO GLUD1 301 GS cells) captured on Human Fab binder on CM5 chip, c-Met as analyte, 1:1 kinetic fit; rounded form of the value in r2
c-Met [3] = target: T1, c-Met; test: SPR, Biacore T100; antibody (from GSKO 301 GS cells) captured on Human Fab binder on CM5 chip, c-Met as analyte, 1:1 kinetic fit; rounded form of the value in r2
c-Met [4] = target: T1, c-Met; test: SPR, Biacore T100; antibody (from GSKO 301 GS cells) captured on Human Fab binder on CM5 chip, c-Met as analyte 25 to 0.78 nmol, 1:1 kinetic fit

T1 sequence (P08581 25-932 limits assumed): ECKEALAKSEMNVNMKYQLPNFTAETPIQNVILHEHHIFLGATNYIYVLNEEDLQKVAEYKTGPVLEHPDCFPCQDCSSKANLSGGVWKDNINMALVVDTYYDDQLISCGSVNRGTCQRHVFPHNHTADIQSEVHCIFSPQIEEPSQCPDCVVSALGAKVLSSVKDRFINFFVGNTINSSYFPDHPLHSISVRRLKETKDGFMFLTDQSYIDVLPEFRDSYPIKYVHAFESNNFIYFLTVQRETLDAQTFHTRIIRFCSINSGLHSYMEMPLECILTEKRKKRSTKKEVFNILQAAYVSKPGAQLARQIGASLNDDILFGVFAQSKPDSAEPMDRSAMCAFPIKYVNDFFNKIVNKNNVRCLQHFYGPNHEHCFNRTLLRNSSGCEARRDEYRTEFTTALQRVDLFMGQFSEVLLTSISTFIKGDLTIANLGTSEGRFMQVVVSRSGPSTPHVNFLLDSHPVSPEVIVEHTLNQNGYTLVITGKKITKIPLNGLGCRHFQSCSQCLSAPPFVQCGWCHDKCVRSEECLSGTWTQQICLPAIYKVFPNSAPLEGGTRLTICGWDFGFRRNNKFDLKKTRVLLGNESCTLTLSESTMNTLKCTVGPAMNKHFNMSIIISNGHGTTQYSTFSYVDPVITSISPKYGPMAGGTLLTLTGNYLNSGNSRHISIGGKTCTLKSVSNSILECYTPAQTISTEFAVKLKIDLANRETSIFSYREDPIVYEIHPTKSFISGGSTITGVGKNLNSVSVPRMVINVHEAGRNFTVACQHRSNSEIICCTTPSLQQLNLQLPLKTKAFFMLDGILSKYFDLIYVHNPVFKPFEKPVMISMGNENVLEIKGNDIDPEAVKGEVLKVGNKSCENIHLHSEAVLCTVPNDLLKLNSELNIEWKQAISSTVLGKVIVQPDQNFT

Kd (c-Met [1]): 0.0926 nM
Kd (c-Met [2]): 0.09 nM
Kd (c-Met [3]): 0.06 nM
Kd (c-Met [4]): 0.0573 nM
B1: 항 c-Met 항체 L3-1Y/IgG2 (antibody, V domains shown)
VH: EVQLVESGGGLVQPGGSLRLSCAASGFTFTDYYMSWVRQAPGKGLEWLGFIRNKANGYTTEYSASVKGRFTISRDNSKNTLYLQMNSLRAEDTAVYYCARDNWFAYWGQGTLVTVSS
VL: DIQMTQSPSSLSASVGDRVTITCKSSQSLLASGNQNNYLAWYQQKPGKAPKMLIIWASTRVSGVPSRFSGSGSGTDFTLTISSLQPEDFATYYCQQSYSRPYTFGQGTKVEIKR
notes: also called S301-12A37 standard; S301-12A37
